T1: human FcγRIIb receptor protein (R&D Systems) (human, UniProt P31994 46-217)
T1 construct: Bought protein injected over captured antibody in Biacore; also called CD32b
T1 sequence (looked up): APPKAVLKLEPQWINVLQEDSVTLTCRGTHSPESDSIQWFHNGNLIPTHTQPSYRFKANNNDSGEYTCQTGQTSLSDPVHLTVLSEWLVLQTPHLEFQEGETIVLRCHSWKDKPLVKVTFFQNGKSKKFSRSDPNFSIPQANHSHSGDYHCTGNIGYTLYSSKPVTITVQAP

T2: human FcγRIIa (131R), His- and GST-tagged (human, UniProt P12318 34-217)
T2 construct: Expressed in HEK293T cells, purified by nickel chromatography; also called R131 FcγRIIa; not shown: 6xHis and GST tags of the pTT5 vector
T2 sequence (looked up): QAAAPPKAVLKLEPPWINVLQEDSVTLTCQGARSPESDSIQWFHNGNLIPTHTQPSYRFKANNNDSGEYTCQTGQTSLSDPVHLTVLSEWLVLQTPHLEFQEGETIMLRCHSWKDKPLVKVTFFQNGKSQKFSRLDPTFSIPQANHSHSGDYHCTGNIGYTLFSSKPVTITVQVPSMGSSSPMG


Legend:
[1] = target: T1, human FcγRIIb receptor protein (R&D …); assay: SPR
Procedure: (§1) Variants were screened for receptor affinity using Biacore™ technology, also referred to as Biacore herein, a surface plasmon resonance (SPR) based technology for studying biomolecular interactions in real time. SPR measurements were performed using a Biacore 3000 instrument (Biacore, Piscataway, N.J.). A protein A/G (Pierce Biotechnology) CM5 biosensor chip (Biacore) was generated using a standard primary amine coupling protocol. All measurements were performed using HBS-EP buffer (10 mM HEPES pH 7.4, 0.15 M NaCl, 3 mM EDTA, 0.005% vol/vol surfactant P20, Biacore). Antibodies at 20 nM or 50 nM in HBS-EP buffer were immobilized on the protein A/G surface and FcγRs were injected. After each cycle, the surface was regenerated by injecting glycine buffer (10 mM, pH 1.5). Data were processed by zeroing time and response before the injection of FcγR and by subtracting appropriate nonspecific signals (response of reference channel and injection of running buffer). Kinetic analyses were performed by global fitting of binding data with a 1:1 Langmuir binding model using BIAevaluation software (Biacore).

[2] = target: T2, human FcγRIIa (131R), His- and …; assay: SPR
Procedure: as §1

Fold vs WT IgG1 [1] [fold] | Kd [1] [nM] | Fold vs WT IgG1 [2] [fold] | Kd [2] [µM] | binding result [1] | binding result [2] | Binder
0.0147 | 100000 | 0.00859 | 100 | – | – | G236K (antibody, human IgG1, kappa, HuAM4G7 anti-CD19 IgG1 (m1) with this Fc substitution, EU index; copies: 2 + 2) heavy: not shown light: DIVMTQSPATLSLSPGERATLSCRSSKSLQNVNGNTYLYWFQQKPGQSPQLLIYRMSNLNSGVPDRFSGSGSGTEFTLTISSLEPEDFAVYYCMQHLEYPITFGAGTKLEIKRTVAAPSVFIFPPSDEQLKSGTASVVCLLNNFYPREAKVQWKVDNALQSGNSQESVTEQDSKDSTYSLSSTLTLSKADYEKHKVYACEVTHQGLSSPVTKSFNRGEC
6.89 | 213 | – | – | – | – | S267D/A327D (antibody, human IgG1, kappa, HuAM4G7 anti-CD19 IgG1 (m1) with these Fc substitutions, EU index; copies: 2 + 2) heavy: not shown light: DIVMTQSPATLSLSPGERATLSCRSSKSLQNVNGNTYLYWFQQKPGQSPQLLIYRMSNLNSGVPDRFSGSGSGTEFTLTISSLEPEDFAVYYCMQHLEYPITFGAGTKLEIKRTVAAPSVFIFPPSDEQLKSGTASVVCLLNNFYPREAKVQWKVDNALQSGNSQESVTEQDSKDSTYSLSSTLTLSKADYEKHKVYACEVTHQGLSSPVTKSFNRGEC
– | – | 0.135 | 6.35 | no binding | – | G236H (antibody, human IgG1, kappa, HuAM4G7 anti-CD19 IgG1 (m1) with this Fc substitution, EU index; copies: 2 + 2) heavy: not shown light: DIVMTQSPATLSLSPGERATLSCRSSKSLQNVNGNTYLYWFQQKPGQSPQLLIYRMSNLNSGVPDRFSGSGSGTEFTLTISSLEPEDFAVYYCMQHLEYPITFGAGTKLEIKRTVAAPSVFIFPPSDEQLKSGTASVVCLLNNFYPREAKVQWKVDNALQSGNSQESVTEQDSKDSTYSLSSTLTLSKADYEKHKVYACEVTHQGLSSPVTKSFNRGEC
15.9 | 92.2 | – | – | – | – | L235Y/S267D (antibody, human IgG1, kappa, HuAM4G7 anti-CD19 IgG1 (m1) with these Fc substitutions, EU index; copies: 2 + 2) heavy: not shown light: DIVMTQSPATLSLSPGERATLSCRSSKSLQNVNGNTYLYWFQQKPGQSPQLLIYRMSNLNSGVPDRFSGSGSGTEFTLTISSLEPEDFAVYYCMQHLEYPITFGAGTKLEIKRTVAAPSVFIFPPSDEQLKSGTASVVCLLNNFYPREAKVQWKVDNALQSGNSQESVTEQDSKDSTYSLSSTLTLSKADYEKHKVYACEVTHQGLSSPVTKSFNRGEC
0.147 | 10000 | 0.0859 | 10 | – | – | G236Q (antibody, human IgG1, kappa, HuAM4G7 anti-CD19 IgG1 (m1) with this Fc substitution, EU index; copies: 2 + 2) heavy: not shown light: DIVMTQSPATLSLSPGERATLSCRSSKSLQNVNGNTYLYWFQQKPGQSPQLLIYRMSNLNSGVPDRFSGSGSGTEFTLTISSLEPEDFAVYYCMQHLEYPITFGAGTKLEIKRTVAAPSVFIFPPSDEQLKSGTASVVCLLNNFYPREAKVQWKVDNALQSGNSQESVTEQDSKDSTYSLSSTLTLSKADYEKHKVYACEVTHQGLSSPVTKSFNRGEC
0.147 | 10000 | 0.0859 | 10 | – | – | G236M (antibody, human IgG1, kappa, HuAM4G7 anti-CD19 IgG1 (m1) with this Fc substitution, EU index; copies: 2 + 2) heavy: not shown light: DIVMTQSPATLSLSPGERATLSCRSSKSLQNVNGNTYLYWFQQKPGQSPQLLIYRMSNLNSGVPDRFSGSGSGTEFTLTISSLEPEDFAVYYCMQHLEYPITFGAGTKLEIKRTVAAPSVFIFPPSDEQLKSGTASVVCLLNNFYPREAKVQWKVDNALQSGNSQESVTEQDSKDSTYSLSSTLTLSKADYEKHKVYACEVTHQGLSSPVTKSFNRGEC
– | – | – | – | no binding | no binding | G236L (antibody, human IgG1, kappa, HuAM4G7 anti-CD19 IgG1 (m1) with this Fc substitution, EU index; copies: 2 + 2) heavy: not shown light: DIVMTQSPATLSLSPGERATLSCRSSKSLQNVNGNTYLYWFQQKPGQSPQLLIYRMSNLNSGVPDRFSGSGSGTEFTLTISSLEPEDFAVYYCMQHLEYPITFGAGTKLEIKRTVAAPSVFIFPPSDEQLKSGTASVVCLLNNFYPREAKVQWKVDNALQSGNSQESVTEQDSKDSTYSLSSTLTLSKADYEKHKVYACEVTHQGLSSPVTKSFNRGEC
– | – | – | – | no binding | no binding | G236Y (antibody, human IgG1, kappa, HuAM4G7 anti-CD19 IgG1 (m1) with this Fc substitution, EU index; copies: 2 + 2) heavy: not shown light: DIVMTQSPATLSLSPGERATLSCRSSKSLQNVNGNTYLYWFQQKPGQSPQLLIYRMSNLNSGVPDRFSGSGSGTEFTLTISSLEPEDFAVYYCMQHLEYPITFGAGTKLEIKRTVAAPSVFIFPPSDEQLKSGTASVVCLLNNFYPREAKVQWKVDNALQSGNSQESVTEQDSKDSTYSLSSTLTLSKADYEKHKVYACEVTHQGLSSPVTKSFNRGEC

Second part, the binder before the results:

Binder | Fold vs WT IgG1 [1] [fold] | Kd [1] [nM] | Fold vs WT IgG1 [2] [fold] | Kd [2] [µM] | binding result [1] | binding result [2]
G236D/H268D (antibody, human IgG1, kappa, HuAM4G7 anti-CD19 IgG1 (m1) with these Fc substitutions, EU index; copies: 2 + 2) heavy: not shown light: DIVMTQSPATLSLSPGERATLSCRSSKSLQNVNGNTYLYWFQQKPGQSPQLLIYRMSNLNSGVPDRFSGSGSGTEFTLTISSLEPEDFAVYYCMQHLEYPITFGAGTKLEIKRTVAAPSVFIFPPSDEQLKSGTASVVCLLNNFYPREAKVQWKVDNALQSGNSQESVTEQDSKDSTYSLSSTLTLSKADYEKHKVYACEVTHQGLSSPVTKSFNRGEC | 11.6 | 126 | – | – | – | –
G236W (antibody, human IgG1, kappa, HuAM4G7 anti-CD19 IgG1 (m1) with this Fc substitution, EU index; copies: 2 + 2) heavy: not shown light: DIVMTQSPATLSLSPGERATLSCRSSKSLQNVNGNTYLYWFQQKPGQSPQLLIYRMSNLNSGVPDRFSGSGSGTEFTLTISSLEPEDFAVYYCMQHLEYPITFGAGTKLEIKRTVAAPSVFIFPPSDEQLKSGTASVVCLLNNFYPREAKVQWKVDNALQSGNSQESVTEQDSKDSTYSLSSTLTLSKADYEKHKVYACEVTHQGLSSPVTKSFNRGEC | 0.147 | 10000 | 0.0859 | 10 | – | –
L235S/S267E (antibody, human IgG1, kappa, HuAM4G7 anti-CD19 IgG1 (m1) with these Fc substitutions, EU index; copies: 2 + 2) heavy: not shown light: DIVMTQSPATLSLSPGERATLSCRSSKSLQNVNGNTYLYWFQQKPGQSPQLLIYRMSNLNSGVPDRFSGSGSGTEFTLTISSLEPEDFAVYYCMQHLEYPITFGAGTKLEIKRTVAAPSVFIFPPSDEQLKSGTASVVCLLNNFYPREAKVQWKVDNALQSGNSQESVTEQDSKDSTYSLSSTLTLSKADYEKHKVYACEVTHQGLSSPVTKSFNRGEC | – | 37800 | – | – | – | –
L234E/H268D (antibody, human IgG1, kappa, HuAM4G7 anti-CD19 IgG1 (m1) with these Fc substitutions, EU index; copies: 2 + 2) heavy: not shown light: DIVMTQSPATLSLSPGERATLSCRSSKSLQNVNGNTYLYWFQQKPGQSPQLLIYRMSNLNSGVPDRFSGSGSGTEFTLTISSLEPEDFAVYYCMQHLEYPITFGAGTKLEIKRTVAAPSVFIFPPSDEQLKSGTASVVCLLNNFYPREAKVQWKVDNALQSGNSQESVTEQDSKDSTYSLSSTLTLSKADYEKHKVYACEVTHQGLSSPVTKSFNRGEC | 5.89 | 249 | – | – | – | –
S267D/H268E (antibody, human IgG1, kappa, HuAM4G7 anti-CD19 IgG1 (m1) with these Fc substitutions, EU index; copies: 2 + 2) heavy: not shown light: DIVMTQSPATLSLSPGERATLSCRSSKSLQNVNGNTYLYWFQQKPGQSPQLLIYRMSNLNSGVPDRFSGSGSGTEFTLTISSLEPEDFAVYYCMQHLEYPITFGAGTKLEIKRTVAAPSVFIFPPSDEQLKSGTASVVCLLNNFYPREAKVQWKVDNALQSGNSQESVTEQDSKDSTYSLSSTLTLSKADYEKHKVYACEVTHQGLSSPVTKSFNRGEC | 17.8 | 82.6 | – | – | – | –
G236I (antibody, human IgG1, kappa, HuAM4G7 anti-CD19 IgG1 (m1) with this Fc substitution, EU index; copies: 2 + 2) heavy: not shown light: DIVMTQSPATLSLSPGERATLSCRSSKSLQNVNGNTYLYWFQQKPGQSPQLLIYRMSNLNSGVPDRFSGSGSGTEFTLTISSLEPEDFAVYYCMQHLEYPITFGAGTKLEIKRTVAAPSVFIFPPSDEQLKSGTASVVCLLNNFYPREAKVQWKVDNALQSGNSQESVTEQDSKDSTYSLSSTLTLSKADYEKHKVYACEVTHQGLSSPVTKSFNRGEC | – | – | – | – | no binding | no binding
S267E/H268D (antibody, human IgG1, kappa, HuAM4G7 anti-CD19 IgG1 (m1) with these Fc substitutions, EU index; copies: 2 + 2) heavy: not shown light: DIVMTQSPATLSLSPGERATLSCRSSKSLQNVNGNTYLYWFQQKPGQSPQLLIYRMSNLNSGVPDRFSGSGSGTEFTLTISSLEPEDFAVYYCMQHLEYPITFGAGTKLEIKRTVAAPSVFIFPPSDEQLKSGTASVVCLLNNFYPREAKVQWKVDNALQSGNSQESVTEQDSKDSTYSLSSTLTLSKADYEKHKVYACEVTHQGLSSPVTKSFNRGEC | 33.3 | 44 | – | – | – | –
S267D/A327E (antibody, human IgG1, kappa, HuAM4G7 anti-CD19 IgG1 (m1) with these Fc substitutions, EU index; copies: 2 + 2) heavy: not shown light: DIVMTQSPATLSLSPGERATLSCRSSKSLQNVNGNTYLYWFQQKPGQSPQLLIYRMSNLNSGVPDRFSGSGSGTEFTLTISSLEPEDFAVYYCMQHLEYPITFGAGTKLEIKRTVAAPSVFIFPPSDEQLKSGTASVVCLLNNFYPREAKVQWKVDNALQSGNSQESVTEQDSKDSTYSLSSTLTLSKADYEKHKVYACEVTHQGLSSPVTKSFNRGEC | 12.1 | 121 | – | – | – | –
G237L (antibody, human IgG1, kappa, HuAM4G7 anti-CD19 IgG1 (m1) with this Fc substitution, EU index; copies: 2 + 2) heavy: not shown light: DIVMTQSPATLSLSPGERATLSCRSSKSLQNVNGNTYLYWFQQKPGQSPQLLIYRMSNLNSGVPDRFSGSGSGTEFTLTISSLEPEDFAVYYCMQHLEYPITFGAGTKLEIKRTVAAPSVFIFPPSDEQLKSGTASVVCLLNNFYPREAKVQWKVDNALQSGNSQESVTEQDSKDSTYSLSSTLTLSKADYEKHKVYACEVTHQGLSSPVTKSFNRGEC | – | – | – | – | no binding | no binding
